This is an account of results in patent US10487318.

T1: fluorescently quenched α-gliadin hexapeptide analogue QXL520-PQPQLP-K(5-FAM)-NH2
T1 chain: PQPQLP

B1: Kumamolysin-As N291D, Q361D (protein)
chain: MSDMEKPWKEGEEARAVLQGHARAQAPQAVDKGPVAGDERMAVTVVLRRQRAGELAAHVERQAAIAPHAREHLKREAFAASHGASLDDFAELRRFADAHGLALDRANVAAGTAVLSGPVDAINRAFGVELRHFDHPDGSYRSYLGEVTVPASIAPMIEAVLGLDTRPVARPHFRMQRRAEGGFEARSQAAAPTAYTPLDVAQAYQFPEGLDGQGQCIAIIELGGGYDEASLAQYFASLGVPAPQVVSVSVDGASNQPTGDPSGPDGEVELDIEVAGALAPGAKFAVYFAPDTDAGFLDAITTAIHDPTLKPSVVSISWGGPEDSWTSAAIAAMNRAFLDAAALGVTVLAAAGDSGSTDGEDDGLYHVDFPAASPYVLACGGTRLVASGGRIAQETVWNDGPDGGATGGGVSRIFPLPAWQEHANVPPSANPGASSGRGVPDLAGNADPATGYEVVIDGEATVIGGTSAVAPLFAALVARINQKLGKAVGYLNPTLYQLPADVFHDITEGNNDIANRAQIYQAGPGWDPCTGLGSPIGVRLLQALLPSASQPQPGSTENLYFQSGALEHHHHHH
B2: Kumamolysin-As N291D, D293A, Q361D, D358N (protein)
chain: MSDMEKPWKEGEEARAVLQGHARAQAPQAVDKGPVAGDERMAVTVVLRRQRAGELAAHVERQAAIAPHAREHLKREAFAASHGASLDDFAELRRFADAHGLALDRANVAAGTAVLSGPVDAINRAFGVELRHFDHPDGSYRSYLGEVTVPASIAPMIEAVLGLDTRPVARPHFRMQRRAEGGFEARSQAAAPTAYTPLDVAQAYQFPEGLDGQGQCIAIIELGGGYDEASLAQYFASLGVPAPQVVSVSVDGASNQPTGDPSGPDGEVELDIEVAGALAPGAKFAVYFAPDTAAGFLDAITTAIHDPTLKPSVVSISWGGPEDSWTSAAIAAMNRAFLDAAALGVTVLAAAGDSGSTNGEDDGLYHVDFPAASPYVLACGGTRLVASGGRIAQETVWNDGPDGGATGGGVSRIFPLPAWQEHANVPPSANPGASSGRGVPDLAGNADPATGYEVVIDGEATVIGGTSAVAPLFAALVARINQKLGKAVGYLNPTLYQLPADVFHDITEGNNDIANRAQIYQAGPGWDPCTGLGSPIGVRLLQALLPSASQPQPGSTENLYFQSGALEHHHHHH
B3: Kumamolysin-As N291D, D293A, D358G, Q361D (protein)
chain: MSDMEKPWKEGEEARAVLQGHARAQAPQAVDKGPVAGDERMAVTVVLRRQRAGELAAHVERQAAIAPHAREHLKREAFAASHGASLDDFAELRRFADAHGLALDRANVAAGTAVLSGPVDAINRAFGVELRHFDHPDGSYRSYLGEVTVPASIAPMIEAVLGLDTRPVARPHFRMQRRAEGGFEARSQAAAPTAYTPLDVAQAYQFPEGLDGQGQCIAIIELGGGYDEASLAQYFASLGVPAPQVVSVSVDGASNQPTGDPSGPDGEVELDIEVAGALAPGAKFAVYFAPDTAAGFLDAITTAIHDPTLKPSVVSISWGGPEDSWTSAAIAAMNRAFLDAAALGVTVLAAAGDSGSTGGEDDGLYHVDFPAASPYVLACGGTRLVASGGRIAQETVWNDGPDGGATGGGVSRIFPLPAWQEHANVPPSANPGASSGRGVPDLAGNADPATGYEVVIDGEATVIGGTSAVAPLFAALVARINQKLGKAVGYLNPTLYQLPADVFHDITEGNNDIANRAQIYQAGPGWDPCTGLGSPIGVRLLQALLPSASQPQPGSTENLYFQSGALEHHHHHH
B4: Kumamolysin-As N291D, D358N (protein)
chain: MSDMEKPWKEGEEARAVLQGHARAQAPQAVDKGPVAGDERMAVTVVLRRQRAGELAAHVERQAAIAPHAREHLKREAFAASHGASLDDFAELRRFADAHGLALDRANVAAGTAVLSGPVDAINRAFGVELRHFDHPDGSYRSYLGEVTVPASIAPMIEAVLGLDTRPVARPHFRMQRRAEGGFEARSQAAAPTAYTPLDVAQAYQFPEGLDGQGQCIAIIELGGGYDEASLAQYFASLGVPAPQVVSVSVDGASNQPTGDPSGPDGEVELDIEVAGALAPGAKFAVYFAPDTDAGFLDAITTAIHDPTLKPSVVSISWGGPEDSWTSAAIAAMNRAFLDAAALGVTVLAAAGDSGSTNGEQDGLYHVDFPAASPYVLACGGTRLVASGGRIAQETVWNDGPDGGATGGGVSRIFPLPAWQEHANVPPSANPGASSGRGVPDLAGNADPATGYEVVIDGEATVIGGTSAVAPLFAALVARINQKLGKAVGYLNPTLYQLPADVFHDITEGNNDIANRAQIYQAGPGWDPCTGLGSPIGVRLLQALLPSASQPQPGSTENLYFQSGALEHHHHHH
B5: Kumamolysin-As N291D (protein)
chain: MSDMEKPWKEGEEARAVLQGHARAQAPQAVDKGPVAGDERMAVTVVLRRQRAGELAAHVERQAAIAPHAREHLKREAFAASHGASLDDFAELRRFADAHGLALDRANVAAGTAVLSGPVDAINRAFGVELRHFDHPDGSYRSYLGEVTVPASIAPMIEAVLGLDTRPVARPHFRMQRRAEGGFEARSQAAAPTAYTPLDVAQAYQFPEGLDGQGQCIAIIELGGGYDEASLAQYFASLGVPAPQVVSVSVDGASNQPTGDPSGPDGEVELDIEVAGALAPGAKFAVYFAPDTDAGFLDAITTAIHDPTLKPSVVSISWGGPEDSWTSAAIAAMNRAFLDAAALGVTVLAAAGDSGSTDGEQDGLYHVDFPAASPYVLACGGTRLVASGGRIAQETVWNDGPDGGATGGGVSRIFPLPAWQEHANVPPSANPGASSGRGVPDLAGNADPATGYEVVIDGEATVIGGTSAVAPLFAALVARINQKLGKAVGYLNPTLYQLPADVFHDITEGNNDIANRAQIYQAGPGWDPCTGLGSPIGVRLLQALLPSASQPQPGSTENLYFQSGALEHHHHHH
B6: Kumamolysin-As N291D, D293A (protein)
chain: MSDMEKPWKEGEEARAVLQGHARAQAPQAVDKGPVAGDERMAVTVVLRRQRAGELAAHVERQAAIAPHAREHLKREAFAASHGASLDDFAELRRFADAHGLALDRANVAAGTAVLSGPVDAINRAFGVELRHFDHPDGSYRSYLGEVTVPASIAPMIEAVLGLDTRPVARPHFRMQRRAEGGFEARSQAAAPTAYTPLDVAQAYQFPEGLDGQGQCIAIIELGGGYDEASLAQYFASLGVPAPQVVSVSVDGASNQPTGDPSGPDGEVELDIEVAGALAPGAKFAVYFAPDTAAGFLDAITTAIHDPTLKPSVVSISWGGPEDSWTSAAIAAMNRAFLDAAALGVTVLAAAGDSGSTDGEQDGLYHVDFPAASPYVLACGGTRLVASGGRIAQETVWNDGPDGGATGGGVSRIFPLPAWQEHANVPPSANPGASSGRGVPDLAGNADPATGYEVVIDGEATVIGGTSAVAPLFAALVARINQKLGKAVGYLNPTLYQLPADVFHDITEGNNDIANRAQIYQAGPGWDPCTGLGSPIGVRLLQALLPSASQPQPGSTENLYFQSGALEHHHHHH
B7: Kumamolysin-As S354N, D358G, D368H (protein)
chain: MSDMEKPWKEGEEARAVLQGHARAQAPQAVDKGPVAGDERMAVTVVLRRQRAGELAAHVERQAAIAPHAREHLKREAFAASHGASLDDFAELRRFADAHGLALDRANVAAGTAVLSGPVDAINRAFGVELRHFDHPDGSYRSYLGEVTVPASIAPMIEAVLGLDTRPVARPHFRMQRRAEGGFEARSQAAAPTAYTPLDVAQAYQFPEGLDGQGQCIAIIELGGGYDEASLAQYFASLGVPAPQVVSVSVDGASNQPTGDPSGPDGEVELDIEVAGALAPGAKFAVYFAPNTDAGFLDAITTAIHDPTLKPSVVSISWGGPEDSWTSAAIAAMNRAFLDAAALGVTVLAAAGDNGSTGGEQDGLYHVHFPAASPYVLACGGTRLVASGGRIAQETVWNDGPDGGATGGGVSRIFPLPAWQEHANVPPSANPGASSGRGVPDLAGNADPATGYEVVIDGEATVIGGTSAVAPLFAALVARINQKLGKAVGYLNPTLYQLPADVFHDITEGNNDIANRAQIYQAGPGWDPCTGLGSPIGVRLLQALLPSASQPQPGSTENLYFQSGALEHHHHHH

The target in the data set is T1, fluorescently quenched α-gliadin ….
Protein B1 registered a Fold Change in Activity of PQ Hydrolysis Relative to Wild Type Kumamolysin-As of 7.5 fold. B2 displayed a Fold Change in Activity of PQ Hydrolysis Relative to Wild Type Kumamolysin-As of 14.8 fold. On to B3, for which the Fold Change in Activity of PQ Hydrolysis Relative to Wild Type Kumamolysin-As was 15 fold.

In turn, B4 came in with a Fold Change in Activity of PQ Hydrolysis Relative to Wild Type Kumamolysin-As of 18.9 fold.

In the case of B5, the Fold Change in Activity of PQ Hydrolysis Relative to Wild Type Kumamolysin-As was 10 fold. Regarding B6, the Fold Change in Activity of PQ Hydrolysis Relative to Wild Type Kumamolysin-As worked out at 15 fold. B7: the Fold Change in Activity of PQ Hydrolysis Relative to Wild Type Kumamolysin-As came to 9 fold.
